Key:
[1] = target: FLAG-tagged VEGF^121 (WT), a soluble splicing variant of VEGFA; experiment: non-reducing SDS-PAGE and FLAG immunoblot; FLAG-VEGF^121 immunopurified with FLAG-M1 antibody from conditioned media of transfected WT HeLa (and WT MDAMB231^m) cells; reducing against non-reducing immunoblot; disulfide-bonded homodimer against monomer
[2] = target: FLAG-tagged VEGF^121 (WT), a soluble splicing variant of VEGFA; experiment: non-reducing SDS-PAGE and FLAG immunoblot; FLAG-VEGF^121 immunopurified with FLAG-M1 antibody from conditioned media of transfected ERO1 KO HeLa (and ERO1 KO MDAMB231^m) cells; reducing against non-reducing immunoblot; disulfide-bonded homodimer against monomer

stoichiometry N [1]: 2
monomer as percent of the total secreted VEGF^121 [2]: 80%
Substance: FLAG-tagged VEGF^121 (WT), a soluble splicing variant of VEGFA (ligand)
